T1: Cyno PD-L1 (cynomolgus, UniProt Q9NZQ7 19-127 (human entry), limits assumed)
T1 construct: also called cynomolgus PD-L1
T1 chain: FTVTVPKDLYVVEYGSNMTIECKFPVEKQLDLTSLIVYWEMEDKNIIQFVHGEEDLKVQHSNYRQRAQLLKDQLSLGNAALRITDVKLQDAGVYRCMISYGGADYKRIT

B1: Anti-PD-L1 Fab mut-03 (S104W) (Fab, V domains shown)
VH: QVQLVQSGAEVKKPGSSVKVSCKTSGDTFSTYAISWVRQAPGQGLEWMGGIIPIFGKAHYAQKFQGRVTITADESTSTAYMELSSLRSEDTAVYFCARKFHFVWGSPFGMDVWGQGTTVTVSS
VL: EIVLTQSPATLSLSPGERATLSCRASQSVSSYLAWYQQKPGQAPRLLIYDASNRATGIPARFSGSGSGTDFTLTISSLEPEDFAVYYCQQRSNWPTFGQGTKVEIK
notes: Fab format; VH variant with WT VL; constant domains of the Fab not specified; also called mut-3
B2: Anti-PD-L1 Fab mut-43 (G56Q) (Fab, V domains shown)
VH: B1 VH with G56Q, W104S
VL: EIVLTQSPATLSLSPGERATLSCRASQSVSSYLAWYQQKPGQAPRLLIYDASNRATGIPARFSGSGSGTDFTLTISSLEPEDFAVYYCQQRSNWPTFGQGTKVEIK
notes: Fab format; VH variant with WT VL; constant domains of the Fab not specified
B3: Anti-PD-L1 Fab mut-34 (K57M) (Fab, V domains shown)
VH: B1 VH with K57M, W104S
VL: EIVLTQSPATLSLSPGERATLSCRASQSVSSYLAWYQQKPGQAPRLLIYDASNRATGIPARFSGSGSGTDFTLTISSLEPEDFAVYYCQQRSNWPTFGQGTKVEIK
notes: as for B2
B4: Anti-PD-L1 Fab mut-46 (I54R) (Fab, V domains shown)
VH: B1 VH with I54R, W104S
VL: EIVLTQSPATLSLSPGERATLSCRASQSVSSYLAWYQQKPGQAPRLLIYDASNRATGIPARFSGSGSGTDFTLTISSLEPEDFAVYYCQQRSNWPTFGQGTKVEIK
notes: as for B2
B5: Anti-PD-L1 Fab mut-48 (T31Q) (Fab, V domains shown)
VH: B1 VH with T31Q, W104S
VL: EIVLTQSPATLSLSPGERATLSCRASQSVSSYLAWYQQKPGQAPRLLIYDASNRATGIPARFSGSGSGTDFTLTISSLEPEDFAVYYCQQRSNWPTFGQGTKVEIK
notes: as for B2
B6: Anti-PD-L1 Fab mut-44 (I52F) (Fab, V domains shown)
VH: B1 VH with I52F, W104S
VL: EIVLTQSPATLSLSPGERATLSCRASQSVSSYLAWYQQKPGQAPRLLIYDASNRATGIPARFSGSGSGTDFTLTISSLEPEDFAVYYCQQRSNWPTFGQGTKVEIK
notes: as for B2
B7: Anti-PD-L1 Fab mut-07 (I54W) (Fab, V domains shown)
VH: B1 VH with I54W, W104S
VL: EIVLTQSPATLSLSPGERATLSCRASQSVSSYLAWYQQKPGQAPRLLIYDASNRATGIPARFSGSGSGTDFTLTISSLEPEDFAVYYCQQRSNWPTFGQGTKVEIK
notes: Fab format; VH variant with WT VL; constant domains of the Fab not specified; also called mut-7
B8: Anti-PD-L1 Fab mut-39 (K57F) (Fab, V domains shown)
VH: B1 VH with K57F, W104S
VL: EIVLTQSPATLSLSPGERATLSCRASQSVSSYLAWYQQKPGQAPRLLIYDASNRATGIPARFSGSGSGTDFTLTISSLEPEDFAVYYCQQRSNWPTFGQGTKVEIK
notes: as for B2
B9: Anti-PD-L1 Fab mut-47 (T31R) (Fab, V domains shown)
VH: B1 VH with T31R, W104S
VL: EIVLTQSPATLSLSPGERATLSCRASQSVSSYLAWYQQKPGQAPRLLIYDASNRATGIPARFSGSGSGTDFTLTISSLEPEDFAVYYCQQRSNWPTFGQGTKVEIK
notes: as for B2
B10: Anti-PD-L1 Fab mut-06 (S104R) (Fab, V domains shown)
VH: B1 VH with W104R
VL: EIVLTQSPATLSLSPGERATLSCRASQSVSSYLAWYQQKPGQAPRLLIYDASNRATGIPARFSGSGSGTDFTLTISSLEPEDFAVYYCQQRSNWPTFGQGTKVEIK
notes: Fab format; VH variant with WT VL; constant domains of the Fab not specified; also called mut-6; Mut-6
B11: Anti-PD-L1 Fab mut-20 (I54Y) (Fab, V domains shown)
VH: B1 VH with I54Y, W104S
VL: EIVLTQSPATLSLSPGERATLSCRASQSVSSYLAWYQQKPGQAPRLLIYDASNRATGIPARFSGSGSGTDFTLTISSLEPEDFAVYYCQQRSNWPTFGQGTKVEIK
notes: as for B2
B12: Anti-PD-L1 Fab mut-42 (I54Q) (Fab, V domains shown)
VH: B1 VH with I54Q, W104S
VL: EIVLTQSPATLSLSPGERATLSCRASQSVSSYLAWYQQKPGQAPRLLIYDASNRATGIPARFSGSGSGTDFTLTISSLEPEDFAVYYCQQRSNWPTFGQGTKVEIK
notes: as for B2
B13: Anti-PD-L1 Fab mut-15 (K57W) (Fab, V domains shown)
VH: B1 VH with K57W, W104S
VL: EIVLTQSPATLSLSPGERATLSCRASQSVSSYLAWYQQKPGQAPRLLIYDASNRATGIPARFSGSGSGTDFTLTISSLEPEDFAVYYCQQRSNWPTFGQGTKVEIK
notes: as for B2
B14: Anti-PD-L1 Fab mut-54 (G56Q, T31Q) (Fab, V domains shown)
VH: B1 VH with T31Q, G56Q, W104S
VL: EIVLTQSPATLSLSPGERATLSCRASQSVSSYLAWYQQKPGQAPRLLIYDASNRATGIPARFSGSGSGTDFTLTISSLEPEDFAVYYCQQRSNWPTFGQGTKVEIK
notes: as for B2
B15: Anti-PD-L1 Fab mut-04 (I54K) (Fab, V domains shown)
VH: B1 VH with I54K, W104S
VL: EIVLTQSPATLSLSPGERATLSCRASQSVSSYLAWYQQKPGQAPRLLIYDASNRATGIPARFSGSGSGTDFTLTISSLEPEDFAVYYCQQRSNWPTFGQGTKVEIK
notes: Fab format; VH variant with WT VL; constant domains of the Fab not specified; also called mut-4
B16: Anti-PD-L1 Fab mut-14 (S104D) (Fab, V domains shown)
VH: B1 VH with W104D
VL: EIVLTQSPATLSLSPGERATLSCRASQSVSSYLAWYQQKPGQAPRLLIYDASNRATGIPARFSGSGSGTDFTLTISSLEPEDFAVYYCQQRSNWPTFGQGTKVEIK
notes: as for B2
B17: Anti-PD-L1 Fab mut-53 (S104R, T31Q) (Fab, V domains shown)
VH: B1 VH with T31Q, W104R
VL: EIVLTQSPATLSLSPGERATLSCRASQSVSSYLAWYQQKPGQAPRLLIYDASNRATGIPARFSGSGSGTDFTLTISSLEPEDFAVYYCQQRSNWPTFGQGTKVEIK
notes: as for B2
B18: Anti-PD-L1 Fab mut-28 (S104N) (Fab, V domains shown)
VH: B1 VH with W104N
VL: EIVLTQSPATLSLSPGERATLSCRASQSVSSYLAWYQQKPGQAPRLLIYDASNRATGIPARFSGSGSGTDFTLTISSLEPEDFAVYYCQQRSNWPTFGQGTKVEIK
notes: as for B2
B19: Anti-PD-L1 Fab mut-50 (Q62E) (Fab, V domains shown)
VH: B1 VH with Q62E, W104S
VL: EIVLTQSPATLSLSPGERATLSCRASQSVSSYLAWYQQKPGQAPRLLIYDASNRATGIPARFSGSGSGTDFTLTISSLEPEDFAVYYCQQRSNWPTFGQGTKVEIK
notes: as for B2
B20: Anti-PD-L1 Fab mut-22 (A33H) (Fab, V domains shown)
VH: B1 VH with A33H, W104S
VL: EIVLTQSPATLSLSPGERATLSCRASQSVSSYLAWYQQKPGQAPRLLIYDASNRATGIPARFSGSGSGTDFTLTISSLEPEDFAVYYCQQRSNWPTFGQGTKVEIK
notes: as for B2
B21: Anti-PD-L1 Fab mut-52 (S104R, G56Q) (Fab, V domains shown)
VH: B1 VH with G56Q, W104R
VL: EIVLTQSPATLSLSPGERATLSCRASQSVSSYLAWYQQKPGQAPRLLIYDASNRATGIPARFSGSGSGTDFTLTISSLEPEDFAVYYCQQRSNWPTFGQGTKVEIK
notes: as for B2
B22: Anti-PD-L1 Fab mut-08 (K57R) (Fab, V domains shown)
VH: B1 VH with K57R, W104S
VL: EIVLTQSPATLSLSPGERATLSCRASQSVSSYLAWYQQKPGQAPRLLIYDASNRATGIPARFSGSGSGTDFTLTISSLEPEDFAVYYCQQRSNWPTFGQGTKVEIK
notes: Fab format; VH variant with WT VL; constant domains of the Fab not specified; also called mut-8
B23: Anti-PD-L1 Fab mut-23 (G56H) (Fab, V domains shown)
VH: B1 VH with G56H, W104S
VL: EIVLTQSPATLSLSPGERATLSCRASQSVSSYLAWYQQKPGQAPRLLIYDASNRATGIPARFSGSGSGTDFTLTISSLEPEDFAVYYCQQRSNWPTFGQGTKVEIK
notes: as for B2
B24: Anti-PD-L1 Fab mut-49 (G56N) (Fab, V domains shown)
VH: B1 VH with G56N, W104S
VL: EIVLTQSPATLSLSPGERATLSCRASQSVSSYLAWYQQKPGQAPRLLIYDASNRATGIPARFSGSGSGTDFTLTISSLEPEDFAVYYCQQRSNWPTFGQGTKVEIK
notes: as for B2
B25: Anti-PD-L1 Fab mut-27 (K57D) (Fab, V domains shown)
VH: B1 VH with K57D, W104S
VL: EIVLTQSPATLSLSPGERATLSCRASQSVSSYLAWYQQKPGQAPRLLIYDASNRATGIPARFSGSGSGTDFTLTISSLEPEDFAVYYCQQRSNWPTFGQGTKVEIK
notes: as for B2
B26: Anti-PD-L1 Fab mut-51 (S104R, G56Q, T31Q) (Fab, V domains shown)
VH: B1 VH with T31Q, G56Q, W104R
VL: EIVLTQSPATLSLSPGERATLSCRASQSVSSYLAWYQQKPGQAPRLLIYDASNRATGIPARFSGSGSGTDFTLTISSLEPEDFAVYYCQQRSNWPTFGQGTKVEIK
notes: as for B2
B27: CD3-IgG-001 (antibody, V domains shown)
VH: EVQLVESGGGLVQPGGSLRLSCAASGFTFNTYAMNWVRQAPGKGLEWVARIRSKYNNYATYYADSVKDRFTISRDDSQSILYLQMNSLKTEDTAVYYCVRHGNFGNSYVSWFAYWGQGTLVTVSS
VL: QAVVTQEPSLTVSPGGTVTLTCRSSTGAVTTSNYANWVQQKPDHLPRALIGGTNKRAPGTPARFSGSLLGDKAALTLSGVQPEDEAEYYCALWYSNLWVFGGGTKLTVL
B28: CD3-IgG-002 (antibody, V domains shown)
VH: B27 VH with A49G, D68G, Q78K, S79N, I80S, V99A
VL: B27 VL with T60V, L77I, V80A, E87I
B29: mouse SP34 IgG (antibody, V domains shown)
VH: B27 VH with G15K, R19K, S87N, V95M
VL: QAVVTQESALTTSPGETVTLTCRSSTGAVTTSNYANWVQEKPDHLFTGLIGGTNKRAPGVPARFSGSLIGDKAALTITGAQTEDEAIYFCALWYSNLWVFGGGTKLTVL
B30: LB218 (intact) (bispecific antibody, human IgG1, kappa, lambda)
heavy: not shown
light: not shown
chain: SCPPCPAPEAAGAPSVFLFPPKPKDTLMISRTPEVTCVVVDVSHEDPEVKFNWYVDGVEVHNAKTKPREEQYNSTYRVVSVLTVLHQDWLNGKEYKCKVSNKALPAPIEKTISKAKGQPREPQVCTLPPSRDELTKNQVSLSCAVKGFYPSDIAVEWESNGQPENNYKTTPPVLDSDGSFFLVSKLTVDKSRWQQGNVFSCSVMHEALHNHYTQKSLSLSPGK
notes: Asymmetric LockBody, uncleaved; also called intact LB218
B31: LB213 (intact) (bispecific antibody, human IgG1, kappa, lambda)
heavy: not shown
light: not shown
chain: B30 chain
notes: Asymmetric LockBody, uncleaved; also called intact LB213
B32: LB218 after incubation with MMP12 (bispecific antibody)
heavy: not shown
light: not shown
chain: B30 chain
notes: Digest of LB218 with human MMP12; a mixture of products; also called MMP12 treated LB218; digested LB218

Changes are numbered by the printed parent chain. In names and notes the source's numbering stands.

The first test deals with T2, Human PD-L1 (human, UniProt Q9NZQ7 19-127, limits assumed).
T2 construct: also called huPD-L1; hPD-L1
Briefly: SPR, Fab. Background: Surface plasmon resonance follows binding to a sensor surface in real time, without labels.
As usually defined, the Kd is the equilibrium constant for the complex coming apart. B1 returned a dissociation constant Kd of 1.1 nM.
On the same count and under the same terms, with B2 the figure was 0.204 nM.
On the same count and under the same terms, with B3 the figure was 3.58 nM; with B4, 1.04 nM.
Turning to B5, the Kd turned out to be 0.249 nM.
B6 showed a dissociation constant (Kd) of 0.542 nM. This Kd lies about 2.2-fold higher than the previous one.
B7 registered a Kd of 4.25 nM.
The same measure, in the same setting: with B8 the figure was 1.54 nM.
Still for that read-out and setting: with B9 the figure was 0.594 nM; with B10, 0.0857 nM; with B11, 0.875 nM.
Still for that read-out and setting: with B12 the figure was 3.99 nM; with B13, 1.69 nM.
As for B14, the affinity, expressed as Kd, was 0.0722 nM. Compared with the last molecule, the Kd is about 23-fold lower.
Still for that read-out and setting: with B15 the figure was 0.857 nM; with B16, 3.36 nM.
In turn, B17 showed a Kd of 0.0217 nM.
The same measure, in the same setting: with B18 the figure was 0.501 nM.
Still for that read-out and setting: with B19 the figure was 0.124 nM; with B20, 1.84 nM; with B21, 0.0214 nM.
Same read-out and setting: with B22 the figure was 0.489 nM.
The molecule B23 had a Kd of 0.195 nM.
On the same count and under the same terms, with B24 the figure was 0.224 nM; with B25, 5.58 nM.
For the molecule B26, binding was put at a Kd of 0.0157 nM.

The next test concerns the target T1, Cyno PD-L1. Briefly: SPR, Fab.
For B1, the affinity, expressed as Kd, was 13.6 nM. This lies in the double-digit nanomolar range.
B2 yielded a Kd of 2.73 nM. Compared with the last molecule, the Kd is about 5-fold lower.
The same measure, in the same setting: with B3 the figure was 5.82 nM; with B4, 12.7 nM; with B5, 3.24 nM.
For the molecule B6, binding was characterised by a dissociation constant (Kd) of 6.85 nM.
Still for that read-out and setting: with B7 the figure was 143 nM; with B8, 3.96 nM.
On to B9, for which binding was characterised by a dissociation constant (Kd) of 9.32 nM.
Consider B10, for which the Kd was 2.86 nM.
The molecule B11 returned a Kd of 15.9 nM.
Consider B12, for which the Kd worked out at 5.98 nM.
Still for that read-out and setting: with B13 the figure was 10.5 nM; with B14, 0.631 nM; with B15, 10.8 nM.
The same measure, in the same setting: with B16 the figure was 29.3 nM; with B17, 0.288 nM.
On the same count and under the same terms, with B18 the figure was 5.51 nM; with B19, 4.82 nM.
B20 came in with a Kd of 20 nM. Against the preceding molecule, the Kd is about 4.1-fold higher.
Regarding B21, the affinity, expressed as Kd, was 0.298 nM.
In turn, B22 yielded a Kd of 6.48 nM.
Consider B23, for which binding was put at a Kd of 3.02 nM.
Same read-out and setting: with B24 the figure was 3.53 nM.
As to B25, the binding result is given as “no binding”.
B26 registered a Kd of 0.18 nM. This counts as sub-nanomolar.

For a further test, the target named is human CD3 on Jurkat cells (human, UniProt P07766 23-207). Briefly: cell-based or functional assay.
Sequence of human CD3 on Jurkat cells (P07766 23-207): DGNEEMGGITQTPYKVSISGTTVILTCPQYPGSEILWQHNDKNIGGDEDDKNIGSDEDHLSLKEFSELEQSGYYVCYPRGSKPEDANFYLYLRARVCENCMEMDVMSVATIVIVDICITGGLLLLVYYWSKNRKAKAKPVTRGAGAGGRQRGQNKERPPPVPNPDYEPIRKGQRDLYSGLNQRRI
Turning to B27, the “EC50, CD3 activation signal in Jurkat reporter cell line (luciferase)” value (from here on “EC50, CD3 activation signal”) was found to be 0.2 nM.
On to B28, for which the “EC50, CD3 activation signal” value is 0.9 nM and the “fold difference of apparent EC50 against SP34 / Anti-CD3-IgG-001, Jurkat reporter” value is ~5 fold.
B29: the “EC50, CD3 activation signal” value was found to be 0.2 nM.

The next test deals with T2, Human PD-L1. In words: ELISA on plate-coated human PD-L1, corrected absorbance 450-570 nm. How it is done:
For ELISA binding assays, 384 well or 96 well plates were coated with […] and incubated overnight at 4° C., protected from light. Plates were washed twice with PBS/0.05% Tween 20 before blocking with block buffer (3% milk protein in PBS) for 1 hour at room temperature. Next, test agent or controls were loaded and incubated for 1 hour at room temperature. Plates were then washed three times with PBS/0.05% Tween 20. Finally, HRP conjugated secondary antibody, diluted 1/5,000 in block buffer, was added and incubated for 1 hour at room temperature. Plates were again washed three times with PBS/0.05% Tween before addition of TMB substrate and incubation for 6 minutes at room temperature. Subsequently, the reaction was stopped with stop solution. Absorbance was read at 450 nm and 570 nm. Absorbance at 570 nm was subtracted from absorbance at 450 nm for each plate.
On the technique in general: ELISA stands for enzyme-linked immunosorbent assay.
For orientation: EC50 (read off the curve) means the concentration that produces a half-maximal response. Low readings indicate a more potent agent, high ones a less potent agent. In the case of B30, the “EC50 (read off the curve)” value was ~0.2 nM.
As for B31, the “EC50 (read off the curve)” value is ~0.2 nM.

A further test addresses T2, Human PD-L1. Briefly: ELISA on plate-coated human PD-L1, sample pre-incubated with MMP12 for 5 min.
Regarding B32, the “EC50 (read off the curve)” value is ~0.1 nM.

A further test concerns the target T2, Human PD-L1. Briefly: ELISA on plate-coated human PD-L1, sample pre-incubated with MMP12 for 15 min.
B32: the “EC50 (read off the curve)” value is ~0.2 nM.

Another test has as its target T2, Human PD-L1. Briefly: ELISA on plate-coated human PD-L1, sample pre-incubated with MMP12 for 30 min.
For B32, the “EC50 (read off the curve)” value is ~0.5 nM.

For a further test, the target named is T2, Human PD-L1. In words: ELISA on plate-coated human PD-L1, sample pre-incubated with MMP12 for 60 min.
For B32, the concentration for a half-maximal effect (EC50 (read off the curve)) is ~0.7 nM.

The record behind these values is patent US20250109206A1 (CENTESSA PHARMACEUTICALS UK, published 2025).
